Laboratory results: patent publication US20240182561A1 (Regeneron, published 2024)

T1: mouse CACNG1 expressed on cells (mouse, UniProt O70578 1-223)
T1 construct: whole, on cells; Transfected in HEK293/mCACNG1; endogenous in C2C12 myotubes and wildtype mouse myofibers; Each row names the cell type under assay; also called mCACNG1; HEK293/mCACNG1
T1 sequence (looked up): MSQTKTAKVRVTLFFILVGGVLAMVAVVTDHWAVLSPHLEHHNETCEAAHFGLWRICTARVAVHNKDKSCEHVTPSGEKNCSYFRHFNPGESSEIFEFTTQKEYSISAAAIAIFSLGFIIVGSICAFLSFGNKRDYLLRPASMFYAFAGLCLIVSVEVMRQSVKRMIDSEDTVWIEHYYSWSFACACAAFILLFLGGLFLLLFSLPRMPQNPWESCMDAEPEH


Tests used:
[1] = molecular target: T1, mouse CACNG1 expressed on cells; assay: imaging cell binding, C2C12 mouse myotubes
Experimental: (§1) HuSKM were seeded in collagen-coated 96-well plates (Greiner Bio-One #655956) at 8,500 cells/well and grown for 24 hours. The growth media was changed to MyoTonic Differentiation Media (Cook Myosite Cat #MD-5555) and replaced every 2 days. Myotubes were assayed after 6 days of differentiation. C2C12 mouse myoblasts were maintained in DMEM with 10% FBS and 1% penicillin-streptomycin supplement and grown in a 37° C. incubator with 5% CO₂. C2C12 cells were seeded in collagen-coated 96-well plates (Greiner Bio-One #655956) at 10,000 cells/well for the cell binding assay and 5,000 cells/well for the cell killing assay. After 24 hours, growth media was replaced with differentiation media (DMEM with 2% horse serum) and placed in a 37° C. incubator with 7.5% CO₂. C2C12 myotubes were assayed after 3 days of differentiation. HEK293/hCACNG1, HEK293/mCACNG1, and HEK293 cells were seeded at 10,000 cells (cell binding assay) or 2,000 (cell killing assay) per well in 96-well black collagen coated plates (Greiner Bio-One, cat #655956) in complete growth media and grown overnight at 37° C. in 5% CO₂.
(§2) Relative binding of anti-CACNG1 antibodies was assessed across the entire panel of cell lines via imaging analysis. […] After one wash with antibody dilution buffer, samples were fixed in CytoFix (BD Biosciences, Cat #554655) diluted 1:1 in PBS and supplemented with a 1:2000 dilution of Hoechst 33342 (Thermo, Cat #H1399) for 20 minutes on ice. Images were acquired with a 10× objective on the Opera Phenix (Perkin Elmer) and relative fluorescence units (RFU) was determined using Harmony software (Perkin Elmer).

[2] = molecular target: T2, nanodisc embedded human CACNG1 expressed with a C-terminal PADRE-Flag-His tag (human, UniProt Q06432 1-222); assay: SPR, anti-His-captured nanodisc, 25 C
T2 construct: Captured on an anti-His Biacore surface; also called human CACNG1 nanodisc; CACNG1 nanodisc; not shown: C-terminal tag
Experimental: Equilibrium dissociation constants (KD values) for nanodisc embedded human CACNG1 expressed with a C-terminal […] tag (human CACNG1 nanodisc; concentration 0.82 mg/ml) binding to purified anti-CACNG1 antibodies were determined using a real-time surface plasmon resonance biosensor technology with a Biacore T200 instrument. The CM5 Biacore sensor surface was derivatized by amine coupling with a monoclonal mouse anti-His antibody (Cytiva; Marlborough, MA). All Biacore binding studies were performed in a buffer composed of 0.01M HEPES, 0.15M NaCl, 1 mM CaCl₂, 0.5 mM MgCl₂, pH 7.4 (HBS-N++ running buffer). Different concentrations of anti-CACNG1 antibodies (ranging from 300 nM to 12 nM in 5-fold serial dilutions) prepared in HBS-N++ running buffer were injected over the captured human CACNG1 nanodisc at a flow rate of 30 μL/minute. Antibody association was monitored for 2 minutes while dissociation was monitored in HBS-N++ running buffer for 5 minutes. At the end of each cycle, the human CACNG1 nanodisc capture surface was regenerated using three 10 second injections of 10 mM Gly pH1.5. All binding kinetics experiments were performed at 25° C.
The specific SPR-Biacore sensorgrams were obtained by a double referencing procedure. The double referencing was performed by first subtracting the signal of each injection over a reference surface (anti-His) from the signal over the experimental surface (anti-His captured human CACNG1 nanodisc) thereby removing contributions from refractive index changes. In addition, running buffer injections were performed to allow subtraction of the signal changes resulting from the dissociation of captured antibodies from the coupled anti-His surface. Kinetic association (kₐ) and dissociation ([…]) rate constants were determined by fitting the real-time sensorgrams to a 1:1 binding model using Scrubber v2.0c curve fitting software. Binding dissociation equilibrium constants (KD) and dissociative half-lives (t %) were calculated from the kinetic rate constants as: […]

[3] = molecular target: T1, mouse CACNG1 expressed on cells; assay: imaging cell binding, HEK293/mCACNG1
Experimental: as §1, §2

[4] = molecular target: T1, mouse CACNG1 expressed on cells; assay: cell-based or functional assay
[5] = molecular target: T3, human CACNG1 expressed on cells (human, UniProt Q06432 1-222); assay: imaging cell binding, HuSKM myotubes
T3 construct: also called hCACNG1; HEK293/hCACNG1
Experimental: as §1, §2

[6] = molecular target: T3, human CACNG1 expressed on cells; assay: imaging cell binding, HEK293/hCACNG1
Experimental: as §1, §2

[7] = molecular target: T3, human CACNG1 expressed on cells; assay: cell-based or functional assay

T3 sequence (Q06432 whole entry): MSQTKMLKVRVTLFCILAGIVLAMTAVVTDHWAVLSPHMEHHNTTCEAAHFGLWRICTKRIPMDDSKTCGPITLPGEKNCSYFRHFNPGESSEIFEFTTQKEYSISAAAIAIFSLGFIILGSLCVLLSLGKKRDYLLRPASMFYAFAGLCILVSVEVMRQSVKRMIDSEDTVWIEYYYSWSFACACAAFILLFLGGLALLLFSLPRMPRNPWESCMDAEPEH
T2 sequence (Q06432 whole entry): as above

Row | Binder | S/N [1] | Kd [2] | koff [2] | kon [2] | mAb bound at 300 nM [2] | t1/2 [2] | EC50 [3] | S/N [3] | % KILL, indirect cell killing, C2C12 [4] | % KILL, indirect cell killing, HEK293/mCACNG1 [4] | EC50/IC50, indirect cell killing, C2C12 [4] | EC50/IC50, indirect cell killing, HEK293/mCACNG1 [4] | EC50 [5] | S/N [5] | EC50 [6] | S/N [6] | % KILL, indirect cell killing, HEK293/hCACNG1 [7] | % KILL, indirect cell killing, HuSKM [7] | EC50/IC50, indirect cell killing, HEK293/hCACNG1 [7] | EC50/IC50, indirect cell killing, HuSKM [7] | other results
1 | REGN7660 (antibody, human IgG4 S228P, kappa, V domains shown, hIgG4) VH: EVQLVESGGGLVQPGGSLKLSCTASGLTLSDSAMHWVRQASGKGLEWVGRIRNKANRYATEYAASVKGRFTISRDDSKNTAYLQMNSLKTEDTAVYYCTRNWKIFLFDYWGQGTLVTVSS VL: EIVLTQSPGTLTLSPGERATLSCRASQSVGSKYLAWFQQKRGQAPRLLIYGASSRTSGIPDRISGSGSGTDFTLTISRLEPEDFAVYYCQQYGSSPWTFGQGTKVEIKR | 1 fold | 12.6 nM | 0.0243 s⁻¹ | 1.93e+06 M⁻¹ s⁻¹ | 23 RU | 0.5 min | > 100 nM | 7.2 fold | 99.8% | 92.3% | 0.0237 nM | 0.0134 nM |  |  |  |  |  |  |  |  | 
2 | REGN10728 (antibody, human IgG4 S228P, kappa, also called H2aM31929N/REGN10728; CACNG1 hIgG4 uber stealth antibody) heavy: QVQLVESGGGVVQPGRSLRLSCTASGITFRNYGMHWVRQAPGKGLEWVAVMWYDGSNKYYADSVKGRFTISGDNSKVYLQMNSLRAEDTAVYYCARRGTIRTAAPFDYWGQGTLVTVSSASTKGPSVFPLAPCSRSTSESTAALGCLVKDYFPEPVTVSWNSGALTSGVHTFPAVLQSSGLYSLSSVVTVPSSSLGTKTYTCNVDHKPSNTKVDKRVESKYGPPCPPCPAPGGGGPSVFLFPPKPKDTLMISRTPEVTCVVVDVSQEDPEVQFNWYVDGVEVHNAKTKPREEQFNSTYRVVSVLTVLHQDWLNGKEYKCKVSNKGLPSSIEKTISKAKGQPREPQVYTLPPSQEEMTKNQVSLTCLVKGFYPSDIAVEWESNGQPENNYKTTPPVLDSDGSFFLYSRLTVDKSRWQEGNVFSCSVMHEALHNHYTQKSLSLSLGK light: not shown | 1.8 fold |  |  |  |  |  |  | 0.8 fold | 1.6% | 5.1% | > 10 nM | > 1 nM | 1.3 nM | 467 fold | 2.4 nM | 138 fold | 95.8% | 99.3% | 0.000519 nM | 0.0381 nM | binding result [1]: no binding (tested: 100 nM highest tested)
3 | REGN10713 (antibody, human IgG4 S228P, lambda, hIgG4) heavy: not shown light: QSVLTQPPSVSAAPGQKVTISCSGSSSNIGNNYVSWYQQLPGTAPKLLIYDNNKRPSGIPDRFSGSKSGTSATLGITGLQTGDEADYYCGTWDLSLSFNWVFGGGTKLTVLGQPKAAPSVTLFPPSSEELQANKATLVCLISDFYPGAVTVAWKADSSPVKAGVETTTPSKQSNNKYAASSYLSLTPEQWKSHRSYSCQVTHEGSTVEKTVAPTECS | 2 fold | 0.635 nM | 4.72e-05 s⁻¹ | 74200 M⁻¹ s⁻¹ | 53 RU | 245 min | > 100 nM | 2.7 fold | 0% | 2.4% | > 10 nM | > 1 nM |  |  |  |  |  |  |  |  | 
4 | H2aM31944N (antibody, mouse IgG2a, kappa, V domains shown, mIgG2a; also called CACNG1 mIgG2a antibody) VH: QVQLVESGGGVVQPGRSLRLSCEASGITFRNYGMHWVRQAPGKGLEWVAVMWYDGSNKYYADSVKGRFTISRDNSKNTVYLQMNSLRAEDTAVYYCARRGHIATAAPFDYWGQGTLVTVSS VL: DIQMTQSPSSLSASVGDRVTISCRASQSISSYLNWYQQKPGKAPKVLMYAASSLQSGVPSRFSGSGSGTDFTLTISSLQPEDFATYYCQQSYSTPPITFGQGTRLEIKR | 0.7 fold | 17.1 nM | 0.00395 s⁻¹ | 231000 M⁻¹ s⁻¹ | 16 RU | 2.9 min | > 100 nM | 2.2 fold | 0% | 4.3% | > 10 nM | > 1 nM | 0.48 nM | 321 fold | 3.3 nM | 93.4 fold | 95.7% | 98.6% | 0.000356 nM | 0.0116 nM | 
5 | REGN10715 (antibody, human IgG4 S228P, kappa, hIgG4) heavy: not shown light: DIQMTQSPSSVSTSVGDRVTISCRASQDIRKWLAWYQQKPGKAPKLLIYATSSLQSGVPSRFSGSGSGTDFTLTISSLQPEDFATYFCQQANSFPFTFGQGTKLEIKRTVAAPSVFIFPPSDEQLKSGTASVVCLLNNFYPREAKVQWKVDNALQSGNSQESVTEQDSKDSTYSLSSTLTLSKADYEKHKVYACEVTHQGLSSPVTKSFNRGEC | 8.4 fold | 1.98 nM | 0.000301 s⁻¹ | 152000 M⁻¹ s⁻¹ | 31 RU | 38.4 min | 0.26 nM | 69.4 fold | 99.8% | 96.1% | 0.00469 nM | 0.000187 nM | 0.2 nM | 1060 fold | 2.7 nM | 91.3 fold | 96.4% | 99.6% | 0.000629 nM | 0.0097 nM | EC50 [1]: 2.3 nM
